Data: article PMC4450073

Columns and labels:
[1] = molecular target: adenovirus type 5 (Ad5) hexon, on purified Ad5 vector particles (human adenovirus type 5) (UniProt P04133); test: SPR; biotinylated virus coupled to a streptavidin (SA) chip (Ad5 482 RU, Ad26.HVR5C 484 RU), T200; 2-fold serial dilutions of hFX from 30 μg/mL injected at 30 μL/min; 10 mM HEPES pH 7.4, 150 mM NaCl, 5 mM CaCl2, 0.005% Tween20; 1:1 binding model
[2] = molecular target: Ad26.HVR5C hexon, on purified vector particles (human adenovirus type 26); test: as above

With “human coagulation factor X (natural protein)” the Kd [1] was 2.33 nM, the koff [1] was 0.00305 s⁻¹ and the kon [1] was 1.31e+06 M⁻¹ s⁻¹. It also gave a Kd [2] of 3.46 nM, a koff [2] of 0.0107 s⁻¹ and a kon [2] of 3.08e+06 M⁻¹ s⁻¹.
